Reference: US20210025901A1 (CALIFORNIA INSTITUTE OF TECHNOLOGY, published 2021)
Bridge positions count the residues as written; N and C are the ends. Primed or numbered codes have the meaning given here. Ends that are not written are not given here. PEG3′ = not defined here

Key:
[1] = target: Full-length His-tagged IL-17F protein (ab167911, Abcam) (human) (UniProt Q96PD4); experiment: fluorescence titration of IL17F protein (nM) against the biotinylated biligand; protocol not described for this figure
[2] = target: T1, Full-length His-tagged IL-17F protein (ab167911, Abcam) (human, UniProt Q96PD4 31-163); experiment: method not stated, FIG. 12C; biligand with PEG3 linker
T1 construct: Bought protein, called 'full-length'; also called human IL-17F protein; not shown: His tag
T1 chain: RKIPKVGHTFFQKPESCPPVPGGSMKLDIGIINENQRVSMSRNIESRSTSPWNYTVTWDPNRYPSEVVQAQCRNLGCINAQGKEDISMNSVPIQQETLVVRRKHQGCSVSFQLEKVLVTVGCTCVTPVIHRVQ

[3] = target: T1, Full-length His-tagged IL-17F protein …; experiment: fluorescence titration of IL17F protein (nM) against the biotinylated biligand; protocol not described for this figure; the arrow from the number points to the PEG3 entry of the legend box
[4] = target: T2, Plasmodium falciparum Histidine Rich Protein-2 (Pf.HRP-2) (Plasmodium falciparum); experiment: plot 'Affinity': fraction bound against [Pf.HRP2] (molar); protocol not described
T2 construct: The construct used in the assays is not described; the whole entry is named
T2 chain: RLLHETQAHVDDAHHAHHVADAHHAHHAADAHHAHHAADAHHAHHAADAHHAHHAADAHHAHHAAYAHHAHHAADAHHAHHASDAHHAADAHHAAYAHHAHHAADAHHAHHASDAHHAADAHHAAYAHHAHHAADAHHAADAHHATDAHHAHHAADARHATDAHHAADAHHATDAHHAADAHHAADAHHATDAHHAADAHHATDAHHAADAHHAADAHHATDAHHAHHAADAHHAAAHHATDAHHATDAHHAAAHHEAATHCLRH

[5] = target: T1, Full-length His-tagged IL-17F protein …; experiment: point ELISA, His-IL-17F vs His-IL-17A at 200 and 50 nM
[6] = target: T3, His-tagged IL-17F epitope scrambled N-terminal to click handle (C48S) (also: His6 tag, position and spacer not given here); experiment: point ELISA: ligand on NeutrAvidin plate, His-tagged epitope peptide at 2 uM, anti-His-AP detection, no-epitope background subtracted
T3 construct: Chemically synthesized, His6 handle; residues N-terminal to C48S (FFQKPES) scrambled
T3 peptide: SQFEKFPSPPVPGGS

[7] = target: T4, Full-length His-tagged IL-17A protein (ab166882, Abcam) (human, UniProt Q16552 24-155); experiment: point ELISA, IL17F or IL17A at 100 nM, mean subtracted fluorescence; protocol not described for this panel
T4 construct: Bought protein; it may not be the whole protein; also called human IL-17A protein; not shown: His tag
T4 sequence: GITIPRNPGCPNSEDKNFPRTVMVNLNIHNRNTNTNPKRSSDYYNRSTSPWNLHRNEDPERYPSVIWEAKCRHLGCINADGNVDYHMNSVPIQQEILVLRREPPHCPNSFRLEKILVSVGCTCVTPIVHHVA

[8] = target: T4, Full-length His-tagged IL-17A protein …; experiment: point ELISA: ligand on NeutrAvidin plate, His-tagged protein at 100 nM, anti-His-AP detection, subtracted fluorescence
[9] = target: T1, Full-length His-tagged IL-17F protein …; experiment: point ELISA, His-IL-17F vs His-IL-17A at 100 nM
[10] = target: T2, Plasmodium falciparum Histidine Rich …; experiment: method not stated, FIG. 15; two Cy(YKYYR) joined by about a 1.5 nm linker

B1: Biotin-PEG3-Cy(RSYNK)(SEQ ID NO:28)-PEG2-Cy(RRATS)(SEQ ID NO:9) (designed binder)
peptide 1: RSYNK
peptide 2: RRATS
modifications: triazole (positions not given here); not fully specified (N-terminus, bridges); also: each chain triazole-cyclized macrocycle, positions not given here, macrocycles joined by PEG2 linker, attachment points not given here
- EC50 (read off the curve) [1]: 4 nM

B2: Biotin-PEG3-Cy(RSYNK)(SEQ ID NO:28)-PEG5-Cy(RRATS)(SEQ ID NO:9) (designed binder)
peptide 1: RSYNK
peptide 2: RRATS
modifications: triazole (positions not given here); not fully specified (N-terminus, bridges); also: each chain triazole-cyclized macrocycle, positions not given here, macrocycles joined by PEG5 linker, attachment points not given here
- EC50 (read off the curve) [1]: 4 nM

B3: Biotin-PEG3-Cy(RSYNK)(SEQ ID NO:28)-PEG3-Cy(RRATS)(SEQ ID NO:9) (designed binder)
peptide 1: RSYNK
peptide 2: RRATS
modifications: not fully specified (N-terminus, bridges); also: macrocycles joined by PEG3 linker (one PEGylated amino acid), attachment not given here, triazole to a chain's N/C-terminus
notes: Two macrocycles covalently joined by one PEGylated amino acid; also called biligand Cy(RSYNK)-PEG3-Cy(RRATS)
- Kd [2]: 0.25 nM
- EC50 [3]: ~0.25 nM

B4: cy(YKYYR)(SEQ ID NO:29)-linker-cy(GWNVDL)(SEQ ID NO:30) biligand (designed binder)
peptide 1: YKYYR
peptide 2: GWNVDL
modifications: not fully specified (bridges)
notes: also called resultant biligand
- EC50 [4]: 0.542 nM

B5: Cy(RRATS)(SEQ ID NO:9)-PEG3-biotin (peptide)
peptide: RRATS-{PEG3′-biotin}
modifications: triazole N-C; also: flanking Pra and Az4 residues, sides not given here
notes: also called PEG3-biotin-modified Cy(RRATS)
- selectivity for IL-17F over IL-17A [5]: 2 ratio
- binding result [6]: no binding (tested: 2 uM)

B6: Cy(RRAQS)(SEQ ID NO:10)-PEG3-biotin (peptide)
peptide: RRAQS-{PEG3′-biotin}
modifications: triazole N-C; also: flanking Pra and Az4 residues, sides not given here
notes: also called PEG3-biotin-modified Cy(RRAQS)
- selectivity for IL-17F over IL-17A [5]: 2 ratio
- binding result [6]: no binding (tested: 2 uM)

B7: Cy(QKHGP)(SEQ ID NO:15)-PEG3-biotin (peptide)
peptide: QKHGP
modifications: triazole (positions not given here); not fully specified (N-terminus, C-terminus, bridges); also: triazole cyclization via flanking Pra and Az4 residues, order not given here, PEG3-biotin, end not given here
notes: also called PEG3-biotin-modified Cy(QKHGP)
- binding result [7]: no binding (tested: 100 nM)

B8: Cy(TKHGP)(SEQ ID NO:16)-PEG3-biotin (peptide)
peptide: TKHGP
modifications: triazole (positions not given here); not fully specified (N-terminus, C-terminus, bridges); also: triazole cyclization via flanking Pra and Az4 residues, order not given here, PEG3-biotin, end not given here
notes: also called PEG3-biotin-modified Cy(TKHGP)
- binding result [8]: no binding (tested: 100 nM)

B9: Biotin-PEG3-Cy(KKGWP)(SEQ ID NO:23) (peptide)
peptide: KKGWP
modifications: triazole N-C; not fully specified (N-terminus, C-terminus); also: flanking Pra and Az4 residues, sides not given here
notes: also called PEG3-biotin-modified Cy(KKGWP)
- selectivity for IL-17F over IL-17A [9]: 4 ratio

B10: Biotin-PEG3-Cy(RSYNK)(SEQ ID NO:28) (peptide)
peptide: RSYNK
modifications: triazole N-C; not fully specified (N-terminus, C-terminus); also: flanking Pra and Az4 residues, sides not given here
notes: also called PEG3-biotin-modified Cy(RSYNK)
- selectivity for IL-17F over IL-17A [9]: 4 ratio

B11: YKYYR (SEQ ID NO:29) dimer (designed binder)
peptide: YKYYR
modifications: not fully specified (bridges)
notes: also called two Cy(YKYYR) PCCs linked together with about a 1.5 nm long linker; linked biligand
- EC50 [10]: 20 nM
